Assay results taken from patent US20230128075A1.
Changes are numbered by the printed parent chain.

B1: h77A-1.52 (antibody, V domains shown)
VH: QIQLVQSGVEVKKPGASVKVSCKASGYIFTNYGMNWVRQAPGQGLEWMGWINTYTGEPRYADDFKGRFTFTTDTSTSTAYMELRSLRSDDTAVYFCARYDHRMDYWGQGTLVTVSS
VL: EIVLTQSPDSLAVSLGERATINCKSSQSLLNSGTRKNYLAWYQQKAGQSPKLLIYWTSTRESGVPDRFSGSGSGTDFTLTIDSLQAEDVAVYYCKQSYTLYTFGGGTKVEIK
B2: h77A-1.54 (antibody, V domains shown)
VH: B1 VH with V9A, I28T, N31K, R59K, A61G
VL: B1 VL
B3: h77A-1.79 (antibody, V domains shown)
VH: B1 VH with V9A, I28T, N31K
VL: B1 VL with A46P, T99N
B4: h77A-1.80 (antibody, V domains shown)
VH: B1 VH with V9A, I28T, R59K, R102V
VL: B1 VL with A40S, A46P, L53I

Biological target: HSP70 (antigen; source and nucleotide state not stated) (Homo sapiens (Human)) (UniProt P0DMV8)
Assay: biosensor, anti-human Fc capture, antigen 100 nM

Chain of HSP70 (antigen; source and nucleotide state not stated) (Homo sapiens (Human)) (P0DMV8 whole entry): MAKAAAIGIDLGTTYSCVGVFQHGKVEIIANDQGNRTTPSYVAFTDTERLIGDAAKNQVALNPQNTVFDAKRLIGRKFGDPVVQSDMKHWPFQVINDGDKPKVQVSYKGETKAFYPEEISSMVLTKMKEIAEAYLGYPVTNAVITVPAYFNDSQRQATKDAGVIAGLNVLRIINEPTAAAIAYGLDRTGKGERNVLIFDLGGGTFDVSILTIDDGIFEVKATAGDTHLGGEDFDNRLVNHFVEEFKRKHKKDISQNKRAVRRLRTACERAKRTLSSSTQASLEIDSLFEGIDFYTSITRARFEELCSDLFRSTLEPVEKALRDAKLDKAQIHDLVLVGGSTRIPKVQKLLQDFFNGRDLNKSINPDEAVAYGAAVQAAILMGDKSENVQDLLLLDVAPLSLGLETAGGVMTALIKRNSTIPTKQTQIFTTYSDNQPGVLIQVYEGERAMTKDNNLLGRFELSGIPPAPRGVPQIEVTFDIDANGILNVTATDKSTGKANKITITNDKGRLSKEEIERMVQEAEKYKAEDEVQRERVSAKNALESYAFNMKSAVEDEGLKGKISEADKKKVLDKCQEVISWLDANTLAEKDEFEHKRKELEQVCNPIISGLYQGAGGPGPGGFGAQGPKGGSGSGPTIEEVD

| Binder | % Diss | X = 1495 | X = 610 |
| --- | --- | --- | --- |
| B1 | -115% | 0.0133 nM |  |
| B2 | -41.2% |  | 0.0068 nM |
| B3 | -37.4% |  | 0.0131 nM |
| B4 | -8.84% |  | 0.0181 nM |
